Measured values from patent US20140212432A1 (University of California, published 2014).

T1: MT-SP1 (UniProt Q9Y5Y6 615-855, limits assumed)
T1 sequence (looked up): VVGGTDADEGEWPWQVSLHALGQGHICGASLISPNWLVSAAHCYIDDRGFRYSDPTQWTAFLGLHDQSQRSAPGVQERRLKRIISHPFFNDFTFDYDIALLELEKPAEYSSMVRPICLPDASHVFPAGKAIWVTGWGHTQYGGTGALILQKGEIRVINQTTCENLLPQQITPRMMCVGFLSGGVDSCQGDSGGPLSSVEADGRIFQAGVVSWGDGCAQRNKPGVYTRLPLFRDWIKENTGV

T2: HGFA (UniProt Q04756 373-655, limits assumed)
T2 sequence (looked up): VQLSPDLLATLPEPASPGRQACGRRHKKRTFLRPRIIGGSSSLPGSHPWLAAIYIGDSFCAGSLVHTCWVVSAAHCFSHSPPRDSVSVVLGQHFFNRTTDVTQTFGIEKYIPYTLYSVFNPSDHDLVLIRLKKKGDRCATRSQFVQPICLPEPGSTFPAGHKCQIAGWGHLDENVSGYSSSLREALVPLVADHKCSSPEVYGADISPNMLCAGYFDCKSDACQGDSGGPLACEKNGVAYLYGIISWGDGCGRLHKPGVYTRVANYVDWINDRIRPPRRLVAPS

B1: U33 Fab (Fab, V domains shown)
VH: EVQLVQSGGGLVKPGRSLRLSCTASGFTFGDYAMSWVRQAPGKGLEWVGFIRSKAYGGTTEYAAVKGRFTISRDDSKSIAYLQMNSLKTEDTAVYYCIRGANWNWGQGTLVTVSS
VL: EIVLTQSPLSLPVTPGEPASISCRSSQTLMNRNGNNFLDWYLQKPGQSPQLLIYLGSNRAPGVPDRFSGSGSGTDFTLKISRVEAEDVGVYYCMQRIEFPYTFGQGTKLEIKR
notes: Human Fab from a naive B cell phage display library; also called clone U33; Fab U33
B2: U33 IgG (antibody, V domains shown)
VH: B1 VH
VL: B1 VL
notes: U33 Fab converted to full length IgG; It was detected with an anti-human Fc secondary; The internalisation study used the 111In-DOTA labelled form; also called full length IgG; 111In-U33 IgG

Assays:
mouse uPA [1] = biological target: T3, mouse uPA (mouse, UniProt P06869 21-433, limits assumed); experiment: quantitative ELISA, uPA-coated plates
T3 construct: The construct is not described; It was active-site titrated in the IgG ELISA, so it was an active form; also called mouse enzyme
Procedure: (§1) Serial dilutions of pure U33 were added to uPA coated plates and incubated for 1 hour. The amount of Fab bound to uPA was determined by ELISA. U33 Fab was detected only in wells coated with human active uPA. Panel B depicts inhibition of human uPA by U33. The proteolytic activity of human or mouse uPA was read in absence and presence of 1 μM of U33. The enzyme activity is expressed as percentage of the uPA activity in absence of Fab (100%). […] Serial dilutions of U33-Fab were added to uPAR-uPA coated plates and incubated for 1 hour and the activity of uPA was read. Panel D depicts prevention of uPA binding to PAI-1 coated plates by U33. Serial dilutions of pure U33 (4 μM to 31.2 nM) were pre-incubated overnight with uPA and added to PAI-1 coated plates. The amount of uPA bound to PAI was determined by ELISA. […] Serial dilutions of U33 were added to a uPA-coated plate pre-incubated with and without 1 μM CMK. The amount of U33 Fab bound to uPA was determined by ELISA.
(§2) The affinity and specificity of the U33 Fab was determined using quantitative ELISA as well as inhibition assays with human uPA (active and zymogen) and mouse uPA.

[2] = biological target: T4, human pro-uPA (zymogen uPA) (human, UniProt P00749 21-431); experiment: quantitative ELISA, uPA-coated plates
T4 construct: mature
Procedure: as §1, §2

[3] = biological target: T5, active human urokinase-type plasminogen activator (uPA) (human, UniProt P00749 21-177; P00749 179-431); experiment: steady-state enzyme inhibition of soluble uPA
uPA-PAI-1 complex [4] = biological target: T6, uPA-PAI-1 complex (human, UniProt P00749 21-177; P00749 179-431; P05121 24-402); experiment: binding of U33 Fab to uPA pre-incubated with PAI-1
uPA-PAI-1 complex [5] = biological target: T6, uPA-PAI-1 complex; experiment: ELISA, uPA-coated plate pre-treated with PAI-1 (133 nM to 8.3 nM)
Procedure: (§3) ELISA assays were performed to further assess the selectivity of U33 IgG for uPA compared to highly related serine proteases. All proteases were active site-titrated to ensure that identical concentrations of active protease were adsorbed to the ELISA plate. After blocking, increasing concentrations of U33 IgG were incubated for 1 hour at RT. Unbound U33 IgG was removed by washing and bound U33 IgG was detected with an anti-human Fc-HRP secondary. 50 μL at of 2.8 nM active protease in coating buffer were added to each well in a Nunc Maxisorb ELISA plate and incubated 0/N at 4° C. Unbound protease was removed by hand washing wells 3× with wash buffer. Wells were incubated in 200 μL of Block Solution per well for 2 h at RT. Block Solution was removed by hand washing wells 3× with wash buffer. 50 μL of U33 IgG in Block Solution was added for 1 h at RT. The highest U33 IgG concentration was 651 nM, and was decreased in two-fold increments to 5.1 nM. Unbound U33 IgG was removed by hand washing wells 6× with wash buffer. 50 μL of 1:2000 dilution of secondary antibody in Block Solution was added for 1 h at RT. Unbound secondary antibody was removed by hand washing wells 6× with wash buffer. 100 μL of 1-step Ultra TMB-ELISA was added and then quenched with 100 μL of 1 M HCl. Signal was quantified by measuring A₄₅₀ on plate reader. […]

[6] = biological target: T5, active human urokinase-type plasminogen …; experiment: enzyme inhibition of uPA
thrombin = thrombin (UniProt P00734 328-622); experiment: ELISA, protease-coated plate, anti-human Fc-HRP detection
Procedure: (§4) ELISA assays were performed to further assess the selectivity of U33 IgG for uPA compared to highly related serine proteases. All proteases were active site-titrated to ensure that identical concentrations of active protease were adsorbed to the ELISA plate. After blocking, increasing concentrations of U33 IgG were incubated for 1 hour at RT. Unbound U33 IgG was removed by washing and bound U33 IgG was detected with an anti-human Fc-HRP secondary. 50 μL at of 2.8 nM active protease in coating buffer were added to each well in a Nunc Maxisorb ELISA plate and incubated 0/N at 4° C. Unbound protease was removed by hand washing wells 3× with wash buffer. Wells were incubated in 200 μL of Block Solution per well for 2 h at RT. Block Solution was removed by hand washing wells 3× with wash buffer. 50 μL of U33 IgG in Block Solution was added for 1 h at RT. The highest U33 IgG concentration was 651 nM, and was decreased in two-fold increments to 5.1 nM. Unbound U33 IgG was removed by hand washing wells 6× with wash buffer. 50 μL of 1:2000 dilution of secondary antibody in Block Solution was added for 1 h at RT. Unbound secondary antibody was removed by hand washing wells 6× with wash buffer. 100 μL of 1-step Ultra TMB-ELISA was added and then quenched with 100 μL of 1 M HCl. Signal was quantified by measuring A₄₅₀ on plate reader. Results for U33 binding to uPA, thrombin, HGFA, hepsin, chymotrypsin and trypsin are shown in FIG. 4, panel A. Results for U33 binding to uPA, MT-SP1 and plasmin are shown in FIG. 4, panel B. Results for U33 binding to uPA and tPA are shown in FIG. 4, panel C. […] Therefore U33 IgG can discriminate between proteases with identical catalytic mechanisms and similar protein folds.

MT-SP1 = biological target: T1, MT-SP1; experiment: as above
Procedure: as §4

HGFA = biological target: T2, HGFA; experiment: as above
Procedure: as §4

mouse uPA [7] = biological target: T3, mouse uPA; experiment: as above
Procedure: as §4

tPA = tPA (UniProt P00750 36-562); experiment: as above
Procedure: as §4

plasmin = plasmin (UniProt P00747 97-810, limits assumed); experiment: as above
Procedure: as §4

hepsin = hepsin (UniProt P05981 45-417, limits assumed); experiment: as above
Procedure: as §4

[8] = biological target: T4, human pro-uPA (zymogen uPA); experiment: ELISA, plate coated with pro-uPA
Procedure: as §3

T3 sequence (P06869 21-433 limits assumed): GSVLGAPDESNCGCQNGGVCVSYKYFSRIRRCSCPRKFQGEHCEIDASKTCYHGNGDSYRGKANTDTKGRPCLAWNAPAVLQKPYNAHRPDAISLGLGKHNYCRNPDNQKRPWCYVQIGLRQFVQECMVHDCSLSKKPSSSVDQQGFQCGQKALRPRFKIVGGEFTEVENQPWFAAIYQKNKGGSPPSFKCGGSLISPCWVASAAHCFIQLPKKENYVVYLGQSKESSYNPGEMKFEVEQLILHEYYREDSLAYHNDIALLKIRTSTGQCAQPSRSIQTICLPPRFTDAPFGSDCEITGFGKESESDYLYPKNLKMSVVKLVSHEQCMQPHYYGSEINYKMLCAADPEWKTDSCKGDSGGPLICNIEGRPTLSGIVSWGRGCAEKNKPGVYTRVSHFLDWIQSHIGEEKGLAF
hepsin, sequence (P05981 45-417 limits assumed): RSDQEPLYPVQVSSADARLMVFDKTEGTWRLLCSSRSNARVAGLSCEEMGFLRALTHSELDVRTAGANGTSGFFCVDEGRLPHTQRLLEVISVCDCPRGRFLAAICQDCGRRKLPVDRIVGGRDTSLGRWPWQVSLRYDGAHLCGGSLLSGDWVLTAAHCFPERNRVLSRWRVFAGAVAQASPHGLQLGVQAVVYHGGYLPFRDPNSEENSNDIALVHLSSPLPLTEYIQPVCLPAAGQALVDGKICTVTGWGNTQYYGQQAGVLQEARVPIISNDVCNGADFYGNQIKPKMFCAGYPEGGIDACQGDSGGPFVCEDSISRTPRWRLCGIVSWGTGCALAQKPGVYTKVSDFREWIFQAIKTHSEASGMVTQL
plasmin, sequence (P00747 97-810 limits assumed): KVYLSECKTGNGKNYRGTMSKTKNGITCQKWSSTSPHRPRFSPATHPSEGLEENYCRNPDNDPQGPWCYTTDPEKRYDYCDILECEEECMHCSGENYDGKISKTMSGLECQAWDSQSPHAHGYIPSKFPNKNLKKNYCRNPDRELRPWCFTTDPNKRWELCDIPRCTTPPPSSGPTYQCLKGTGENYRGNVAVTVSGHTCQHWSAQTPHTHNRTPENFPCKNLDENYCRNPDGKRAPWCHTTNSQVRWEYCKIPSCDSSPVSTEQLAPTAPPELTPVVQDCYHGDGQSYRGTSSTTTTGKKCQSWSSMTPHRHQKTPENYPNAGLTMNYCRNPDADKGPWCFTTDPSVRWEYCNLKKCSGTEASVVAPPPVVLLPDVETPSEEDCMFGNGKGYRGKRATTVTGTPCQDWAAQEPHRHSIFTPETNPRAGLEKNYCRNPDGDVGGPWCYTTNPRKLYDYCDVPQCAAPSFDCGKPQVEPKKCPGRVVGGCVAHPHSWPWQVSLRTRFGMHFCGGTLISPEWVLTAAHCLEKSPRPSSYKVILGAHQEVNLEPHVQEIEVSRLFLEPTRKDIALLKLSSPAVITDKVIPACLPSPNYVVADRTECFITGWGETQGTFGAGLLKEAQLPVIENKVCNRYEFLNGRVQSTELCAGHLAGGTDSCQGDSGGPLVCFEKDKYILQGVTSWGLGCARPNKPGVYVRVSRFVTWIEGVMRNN
tPA, sequence (P00750 36-562 limits assumed): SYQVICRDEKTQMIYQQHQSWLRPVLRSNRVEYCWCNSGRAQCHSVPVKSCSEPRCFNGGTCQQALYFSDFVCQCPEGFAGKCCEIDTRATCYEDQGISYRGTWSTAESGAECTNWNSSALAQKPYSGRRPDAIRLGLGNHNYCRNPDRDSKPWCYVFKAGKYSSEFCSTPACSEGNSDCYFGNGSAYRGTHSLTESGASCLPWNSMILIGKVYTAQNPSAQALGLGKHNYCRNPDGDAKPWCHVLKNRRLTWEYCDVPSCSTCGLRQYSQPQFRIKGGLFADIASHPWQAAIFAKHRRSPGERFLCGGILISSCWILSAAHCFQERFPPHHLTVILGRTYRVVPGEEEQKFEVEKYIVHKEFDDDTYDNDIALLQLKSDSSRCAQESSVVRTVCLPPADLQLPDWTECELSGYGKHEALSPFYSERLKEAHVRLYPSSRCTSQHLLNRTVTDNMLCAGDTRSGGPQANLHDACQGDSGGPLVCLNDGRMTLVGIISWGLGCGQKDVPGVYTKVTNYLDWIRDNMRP

Row | Binder | binding result (mouse uPA [1]) | binding result [2] | Ki [3] [nM] | binding result (uPA-PAI-1 complex [4]) | binding result (uPA-PAI-1 complex [5]) | Ki [6] [nM] | binding result (thrombin) | binding result (MT-SP1) | binding result (HGFA) | binding result (mouse uPA [7]) | binding result (tPA) | binding result (plasmin) | binding result (hepsin) | binding result [8]
1 | B1 | no binding | no binding | 20 | no binding | – | – | – | – | – | – | – | – | – | –
2 | B2 | – | – | – | – | no binding (tested: highest U33 IgG concentration 651 nM) | 10 | no binding (tested: highest U33 IgG concentration 651 nM) | no binding (tested: highest U33 IgG concentration 651 nM) | no binding (tested: highest U33 IgG concentration 651 nM) | no binding (tested: highest U33 IgG concentration 651 nM) | no binding (tested: highest U33 IgG concentration 651 nM) | no binding (tested: highest U33 IgG concentration 651 nM) | no binding (tested: highest U33 IgG concentration 651 nM) | no binding (tested: highest U33 IgG concentration 651 nM)
